One data set has as its target T1, E6APF727D (Homo sapiens, UniProt Q05086, F750D).
T1 construct: made in house; host or cells: E. coli
T1 sequence (Q05086 1-872 isoform Q05086-3 F747D): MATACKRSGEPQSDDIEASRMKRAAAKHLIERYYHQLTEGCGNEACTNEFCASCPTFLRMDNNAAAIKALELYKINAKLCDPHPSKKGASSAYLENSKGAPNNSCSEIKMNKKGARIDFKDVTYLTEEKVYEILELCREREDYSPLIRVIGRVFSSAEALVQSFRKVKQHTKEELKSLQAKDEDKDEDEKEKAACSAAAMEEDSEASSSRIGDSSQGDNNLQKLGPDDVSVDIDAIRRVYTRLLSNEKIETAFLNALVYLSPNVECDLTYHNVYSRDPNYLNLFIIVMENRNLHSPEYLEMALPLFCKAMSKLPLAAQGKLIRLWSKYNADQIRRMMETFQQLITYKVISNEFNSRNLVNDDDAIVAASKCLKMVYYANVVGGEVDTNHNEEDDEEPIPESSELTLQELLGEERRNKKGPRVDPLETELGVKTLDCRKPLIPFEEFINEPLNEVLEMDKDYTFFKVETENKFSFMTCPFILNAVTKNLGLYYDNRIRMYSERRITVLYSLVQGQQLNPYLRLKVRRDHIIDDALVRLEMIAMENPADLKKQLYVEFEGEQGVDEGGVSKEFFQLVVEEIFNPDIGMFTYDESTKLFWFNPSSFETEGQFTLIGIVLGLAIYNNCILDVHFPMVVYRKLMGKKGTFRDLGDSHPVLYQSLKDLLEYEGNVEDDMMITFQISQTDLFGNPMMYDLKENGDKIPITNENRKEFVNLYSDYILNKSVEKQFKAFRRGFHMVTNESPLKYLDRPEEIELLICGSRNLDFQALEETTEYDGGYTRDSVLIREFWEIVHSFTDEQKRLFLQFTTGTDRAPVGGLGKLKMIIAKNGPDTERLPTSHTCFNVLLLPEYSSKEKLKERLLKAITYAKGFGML
Put plainly: E6 rescue of 125I-polyubiquitin chain formation by E6APF727D. The conditions noted are these: 20 nM E6 protein. It counts as biochemical. As to the method:
E6AP-catalyzed ^125I-Ubiquitin Conjugation Assay: The E3 ligase activity of recombinant E6AP ligase was quantitated in kinetic assays under initial velocity conditions (Ronchi et al., (2013) J. Biol. Chem. 288, 10349-10360, Ronchi & Haas (2012) Methods Mol. Biol. 832: 197-218). Rates of E6AP-catalyzed ^125I-polyubiquitin chain formation were measured at 37° C. in incubations of 25-μl final volume containing 50 mM Tris-HCl (pH 7.5), 1 mM ATP, 10 mM MgCl2, 1 mM DTT, 10 mM creatine phosphate, 1 IU of creatine phosphokinase, 5 μM ^125I-ubiquitin (approximately 1.5×10^4 cpm/pmol), 50 nM human Uba1, and the indicated concentrations of UbcH7 and E6AP ligase (Siepmann et al., (2003) J. Biol. Chem. 278: 9448-9457; Baboshina et al., (2001) J. Biol. Chem. 276: 39428-39437). […]
Polyubiquitin chain formation was measured by excising lanes between the top of the resolving gel and the top of the stacker gel, representing anchored and free ^125I-polyubiquitin chains, respectively, and quantitating associated ^125I-ubiquitin by γ-counting. Absolute rates of ^125I-polyubiquitin chain formation were calculated from the associated radioactivity and the corrected specific radioactivity for ^125I-ubiquitin. Datum points represent single assay determinations, and complete data sets were evaluated by non-linear regression analysis using GraFit version 5.0 (Erithicus). […]

The next data set concerns the target T2, E6AP ligase (Homo sapiens, UniProt Q05086).
T2 construct: corresponding to full-length GST-E6AP; made in house; host or cells: E. coli
T2 sequence (Q05086 1-872 isoform Q05086-3): T1 sequence (Q05086 1-872 isoform Q05086-3 F747D) with D747F
As to the kind of experiment: E6AP-catalyzed 125I-polyubiquitin chain formation, initial rates. It counts as biochemical. As to the method:
E6AP-catalyzed ^125I-Ubiquitin Conjugation Assay: The E3 ligase activity of recombinant E6AP ligase was quantitated in kinetic assays under initial velocity conditions (Ronchi et al., (2013) J. Biol. Chem. 288, 10349-10360, Ronchi & Haas (2012) Methods Mol. Biol. 832: 197-218). Rates of E6AP-catalyzed ^125I-polyubiquitin chain formation were measured at 37° C. in incubations of 25-μl final volume containing 50 mM Tris-HCl (pH 7.5), 1 mM ATP, 10 mM MgCl2, 1 mM DTT, 10 mM creatine phosphate, 1 IU of creatine phosphokinase, 5 μM ^125I-ubiquitin (approximately 1.5×10^4 cpm/pmol), 50 nM human Uba1, and the indicated concentrations of UbcH7 and E6AP ligase (Siepmann et al., (2003) J. Biol. Chem. 278: 9448-9457; Baboshina et al., (2001) J. Biol. Chem. 276: 39428-39437).
Reactions were initiated by the addition of ^125I-ubiquitin. After 10-30 min, the reactions were quenched by the addition of 25 μl of 2×SDS sample buffer containing 0.3% (v/v) β-mercaptoethanol, and then the samples were heated to 100° C. for 3 min. The polyubiquitin conjugates were resolved from free ^125I-ubiquitin by 12% (w/v) SDS-PAGE under reducing conditions at 4° C. and visualized by autoradiography of the dried gels.
Polyubiquitin chain formation was measured by excising lanes between the top of the resolving gel and the top of the stacker gel, representing anchored and free ^125I-polyubiquitin chains, respectively, and quantitating associated ^125I-ubiquitin by γ-counting. Absolute rates of ^125I-polyubiquitin chain formation were calculated from the associated radioactivity and the corrected specific radioactivity for ^125I-ubiquitin. Datum points represent single assay determinations, and complete data sets were evaluated by non-linear regression analysis using GraFit version 5.0 (Erithicus). Active Uba1, E2, and E6AP ligase were independently determined in parallel by their stoichiometric formation of ^125I-ubiquitin thioester.

Changes are numbered by the printed parent chain. Entries after “also recorded” stand apart in the source; their conditions may differ.

B1: E6 protein: recombinant human papilloma virus 16 E6 protein, 158 amino acids (protein)
chain: MHQKRTAMFQDPQERPRKLPQLCTELQTTIHDIILECVYCKQQLLRREVYDFAFRDLCIVYRDGNPYAVCDKCLKFYSKISEYRHYCYSLYGTTLEQQYNKPLCDLLIRCINCQKPLCPEEKQRHLDKKQRFHNIRGRWTGRCMSCCRSSRTRRETQL
Usually Kd stands for the concentration at which binding is half-saturated. Usually kcat stands for the maximal rate divided by the concentration of active sites. Regarding B1, the “effect on E6APF727D” value with E6APF727D is “significantly enhanced; also recorded: rescues the kcat defect”. Also, in the data set with E6AP ligase (20 nM E6 protein, 1 nM GST-E6AP), the “effect on initial rate, wild-type protein” value is given as “significantly enhanced”. In addition, in the data set with E6AP ligase (activation of E6AP ligase catalytic activity), the Kactivation turned out to be 1.5 nM. In the data set with E6AP ligase (from double reciprocal plot, His6-E6AP, read-out: Kd for E6 binding), the Kd was found to be 1.5 nM. Besides, in the data set with E6AP ligase (in the presence of 20 nM E6 protein, 0.4 nM His6-E6AP), the kcat is 0.81 ± 0.045 s⁻¹. For the same molecule, the “stimulation in E6AP ligase activity” value in the data set with E6AP ligase (saturating E6 protein) was 14 fold. The mode of action entry with E6AP ligase (with respect to [UbcH7]o) is “non-essential activator”.

These data come from US9725708B2, “Methods of modulating ubiquitin ligase activity” (Board of Supervisors of Louisiana State University and …, priority 2012, dated 2017).
